Results published in US20220177604A1 (ARGENX, published 2022).
Where a chain is given by its changes, count along the chain named.

B1: 18B9_VH_S35H_VL_Y49H (antibody, V domains shown)
VH: QVQLVESGGGLVQPGGSLRLSCAASGFTFSSYVMHWVRQAPGKGLEWVSSIYSDGSHTYYADSVKGRFTISRDNAKNTLYLQMNSLKSEDTAVYYCAKNLEHYSGSYYYTDPRYDYWGQGTQVTVSS
VL: SSALTQPSALSVTLGQTAKITCQGGSLGSSYVHWYQQKPGQAPVLVIHDGDSRPSGIPERFSGSSSGGTATLTISGAQAEDEDDYYCQSADSSGNAVFGGGTHLTVL
B2: VH3D1_S35H (antibody, V domains shown)
VH: QLQVVESGGGLVQPGGSLRLSCAASGFTFSSYYMHWVRQAPGKGLEWVSSIYSDGRGSKTFYADSVKGRFTISRDNAKNTLYLQMNSLKSEDTAVYFCAKDLLVAARGSMDYWGQGTQVTVSS
VL: NFMLTQPSAVSVSLEQTARITCQGGTLGSYGAHWYQQKPGQAPVLLIYGDNSRPSGIPERFSGTRSGGTATLTISGAQAEDEADYYCQSFDYSGNAVFGGGTHLTVL
B3: VL3D1_Y49H VL3D1_Q89H (antibody, V domains shown)
VH: B2 VH with H35S
VL: B2 VL with Y48H, Q88H
B4: OMA VH15 - VL3 (antibody, V domains shown)
VH: EVQLVESGGGLVQPGGSLRLSCAVSGYSITSGHRWEWIRQAPGKGLEWVASIHYDGSTNYNPSVKGRITISRDDSKNTFYLQMNSLRAEDTAVYYCARATHYFGHWHFAVWGQGTLVTVSS
VL: DIQLTQSPSSLSASVGDRVTITCRASQSVDYDGDSYMNWYQQKPGKAPKLLIEWGSYLRSGVPSRFSGSGSGTDFTLTISSLQPEDFATYYCQQNAEDPYTFGQGTKVEIK
B5: OmaVH15G55H - VL3D28H (antibody, V domains shown)
VH: B4 VH with G56H
VL: B4 VL with D32H
notes: also called OmaVH15G55H VL3D25H
B6: OMA VH15 - VL3D28H (antibody, V domains shown)
VH: B4 VH
VL: B4 VL with D32H
notes: also called OMA VH15 VL3D25H
B7: OMA VH15 - VL3D28HS31H (antibody, V domains shown)
VH: B4 VH
VL: B4 VL with D32H, S35H
B8: OMA VH15 - VL3S31H (antibody, V domains shown)
VH: B4 VH
VL: B4 VL with S35H
B9: OmaVH15G55HW100b - VL3 (antibody, V domains shown)
VH: B4 VH with G56H, W106H
VL: B4 VL
B10: OmaVH15G55H - VL3D28HS31H (antibody, V domains shown)
VH: B4 VH with G56H
VL: B4 VL with D32H, S35H
B11: OmaVH15G55HW100b - VL3D28H (antibody, V domains shown)
VH: B4 VH with G56H, W106H
VL: B4 VL with D32H
notes: also called OmaVH15G55HW100b VL3D25H
B12: Oma VH15W100b - VL3 (antibody, V domains shown)
VH: B4 VH with W106H
VL: B4 VL
B13: OmaVH15G55H - VL3S31H (antibody, V domains shown)
VH: B4 VH with G56H
VL: B4 VL with S35H
B14: OmaVH15G55H - VL3 (antibody, V domains shown)
VH: B4 VH with G56H
VL: B4 VL
B15: OmaVH15G55HW100b - VL3S31H (antibody, V domains shown)
VH: B4 VH with G56H, W106H
VL: B4 VL with S35H

What was measured:
[1] = biological target: T1, human immunoglobulin E (hIgE) (human, UniProt P01854-1 1-428); experiment: SPR competition, hIgE over hFcεRIα chip, pH 5.5
T1 construct: also called human IgE; Native IgE (Abcam)
T1 sequence (P01854 whole entry): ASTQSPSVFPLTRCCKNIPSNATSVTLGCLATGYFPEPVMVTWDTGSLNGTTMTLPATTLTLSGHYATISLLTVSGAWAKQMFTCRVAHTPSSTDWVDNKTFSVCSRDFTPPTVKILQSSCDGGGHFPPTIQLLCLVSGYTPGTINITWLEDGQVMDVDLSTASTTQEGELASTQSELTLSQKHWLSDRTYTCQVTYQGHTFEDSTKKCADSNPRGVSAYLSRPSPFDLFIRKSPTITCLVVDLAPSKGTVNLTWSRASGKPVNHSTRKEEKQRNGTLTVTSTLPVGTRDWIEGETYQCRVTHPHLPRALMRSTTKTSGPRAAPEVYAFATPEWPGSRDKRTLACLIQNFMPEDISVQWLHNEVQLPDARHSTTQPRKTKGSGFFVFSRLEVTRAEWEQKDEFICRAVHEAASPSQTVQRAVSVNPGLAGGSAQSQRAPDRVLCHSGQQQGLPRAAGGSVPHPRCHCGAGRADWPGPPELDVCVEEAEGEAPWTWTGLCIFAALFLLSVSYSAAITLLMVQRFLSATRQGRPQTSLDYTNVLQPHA
Experimental: (§1) The assay was performed in HBS-EP pH7.4 or HBS-EP pH 5.5. Raw data were analyzed via BIA evaluation software with a blank subtraction (2-1). […] The IC50 values of each compound were calculated with a non-linear regression (log(agonist) vs. response Variable slope (four parameters)).
(§2) Raw data were analyzed via BIA evaluation software with a blank subtraction (2-1). […] The IC50 values of each compound, calculated with a non-linear regression (log(agonist) vs. response Variable slope (four parameters)).

[2] = biological target: T1, human immunoglobulin E (hIgE); experiment: SPR competition, hIgE over hFcεRIα chip, pH 7.4
Experimental: as §1, §2

[3] = biological target: T2, recombinant Motavizumab human IgE (rMota-hIgE) (human, UniProt P01854 1-428); experiment: hIgE binding ELISA
T2 construct: also called Recombinant IgE (argenx)
T2 sequence (P01854 other isoform, or with tags, fused parts or gaps limits assumed, form in doubt): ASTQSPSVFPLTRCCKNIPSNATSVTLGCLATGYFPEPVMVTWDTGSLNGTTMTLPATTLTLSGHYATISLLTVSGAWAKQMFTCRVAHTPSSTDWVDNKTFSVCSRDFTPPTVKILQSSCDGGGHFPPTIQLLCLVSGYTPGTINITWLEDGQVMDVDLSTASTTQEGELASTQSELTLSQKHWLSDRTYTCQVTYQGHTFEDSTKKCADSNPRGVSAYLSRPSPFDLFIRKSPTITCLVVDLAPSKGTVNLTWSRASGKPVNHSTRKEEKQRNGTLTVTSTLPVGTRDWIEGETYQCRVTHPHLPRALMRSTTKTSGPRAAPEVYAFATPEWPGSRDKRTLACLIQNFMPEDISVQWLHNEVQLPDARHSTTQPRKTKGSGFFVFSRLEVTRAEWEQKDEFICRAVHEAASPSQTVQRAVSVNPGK
Experimental: (§3) Briefly a Maxisorp plate was coated with recombinant human respiratory syncytial virus protein F (RSV-F) (0.5 μg/mL), then blocked with PBS with 3% BSA and 0.05% Tween. […] After several washing steps at pH 7.4 or pH 5.5, detection of the bound mAbs was carried out with an anti-human Fc-HRP antibody.

[4] = biological target: T1, human immunoglobulin E (hIgE); experiment: SPR (Biacore), pH 6.0
[5] = biological target: T1, human immunoglobulin E (hIgE); experiment: SPR (Biacore), pH 7.4
[6] = biological target: T2, recombinant Motavizumab human IgE …; experiment: hIgE binding ELISA, pH 5.5
Experimental: as §3

[7] = biological target: T2, recombinant Motavizumab human IgE …; experiment: hIgE binding ELISA, pH 7.4
Experimental: as §3

[8] = biological target: T1, human immunoglobulin E (hIgE); experiment: competition ELISA, hIgE to hFcεRIα
[9] = biological target: T1, human immunoglobulin E (hIgE); experiment: SPR (Biacore)

Binder	IC50 [1] [µg/mL]	IC50 [2] [µg/mL]	Ratio EC50 pH 5.5/7.4 [3]	Ratio EC50 pH 7.4/5.5 [3]	Kd [4] [nM]	koff [4] [s⁻¹]	kon [4] [M⁻¹ s⁻¹]	Kd [5] [nM]	koff [5] [s⁻¹]	kon [5] [M⁻¹ s⁻¹]	EC50 [6] [µg/mL]	EC50 [7] [µg/mL]	IC50 [8] [nM]	Ratio pH 7.4/pH6.0 (of KD) [9]
B1	24.6	26.3												
B2	23	15.5												
B3	15.2	4.41												
B4			1.1	0.93	1.03	0.00029	281000	< 0.0769	< 1e-05	130000	0.0217	0.0202	0.0803	
B5			0.9	1.05	4.39	0.00117	265000	0.728	0.000206	283000	0.0251	0.0264	0.187	6
B6			1	0.99	2.62	0.000736	281000	0.168	4.41e-05	264000	0.0164	0.0163	0.137	15.6
B7			1.2	0.86	12.8	0.00398	310000	1.1	0.000334	302000	0.0178	0.0153	0.722	11.7
B8			0.9	1.12	8.93	0.00228	261000	0.534	0.000166	310000	0.0179	0.02	0.206	16.7
B9			13.5	0.07	150	0.0254	170000	8.69	0.00226	261000	0.221	0.0164	23.2	17.2
B10			1.5	0.67	16.1	0.00527	326000	2.52	0.000722	286000	0.023	0.0154	2.63	6.4
B11			9.6	0.1	136	0.0648	123000	15.2	0.00303	200000	0.13	0.0135	172	9
B12			1.9	0.53	29.8	0.00875	294000	2.93	0.00103	351000	0.0326	0.0174	1.4	10.2
B13			1.5	0.67	9.07	0.00297	329000	1.33	0.000402	301000	0.023	0.0153	0.485	6.8
B14			0.9	1.16	1.8	0.000524	291000	0.326	0.000105	323000	0.022	0.0255	0.0753	5.6
B15					312	0.0986	243000	15.4	0.00391	253000		0.0191	446	20.3
